The results in this text go back to publication PMC6123785.

For one assay, the target named is PTHR1 wild-type receptor (UniProt Q03431).
Assay [1] addresses parathyroid hormone receptor 1 BRET-biosensor PTHR1_(Nluc/Halo618) (UniProt Q03431).
The target is the same in assay [2]. The source holds these as a separate data set.

For PTH(1-34) (peptide), the Supplementary Figure 6f: pEC50 of PTH(1-34), PTHR1 mediated cAMP response (FRET-based H187-EPAC cAMP sensor co-transfected with the wild-type receptor) (pEC50 (-log M)) with PTHR1 wild-type receptor was found to be 9.52. The same substance had a Supplementary Figure 6f: pEC50 of PTH(1-34), PTHR1 mediated cAMP response (FRET-based H187-EPAC cAMP sensor co-transfected with the biosensor PTHR1Nluc/Halo) (pEC50 (-log M)) in assay [1] of 7.57. Also, in assay [2], the change in intramolecular BRET of the PTHR1 (Nluc/Halo618) sensor in intact cells, 96-well plate, 37 °C, saturating ligand (Fig. 3d); serial dilutions for a concentration-response curve (Fig. 3e) is 10%.
